In the nanobody polyreactivity screen of Harvey et al. (2022):

Assay: yeast display, Sf9 membrane polyspecificity reagent, FACS + sequencing; frameworks hold sequencing errors
Outline: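 Nanobodies from a synthetic yeast display library (Saccharomyces cerevisiae BJ5465), induced 36–48 hours with galactose, were stained 1 hour at 4 °C with 10% biotinylated, detergent-solubilized Sf9 membrane reagent, enriched on streptavidin microbeads, then FACS-sorted. Anti-HA (expression) and streptavidin (reagent binding) fluorescence set low and high (top ~1%) gates. Polyreactivity labels come from the gate of origin. Genes were colony-PCR amplified, MiSeq 2 × 250 sequenced and filtered by CDR length.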
With “QVQLEESGGGLVQAGGSLRLSCAASGSIFYSNAMGWYRQAPGKEREFVAAISAGGGSTYYADSVKGRFTISRDNEKNTVYLQMNSLKPEDTSVYYCAAQPYNIIYPYDYWGQGTQVTVSS” the “polyreactivity (PSR sort gate)” value was “low polyreactivity”.
In the case of “QVQLVESGGGLVQAGGSLRLSCAASGIIFAGNAMGWYRQAPGKERELLAVITSGGSTYYADSVKGRFTISRDNAKNTVFLQINSLIPEDTAVYYCNKVYYAYRVSLYSYGYWGQGTQVTVSS”, the “polyreactivity (PSR sort gate)” value is reported as “high polyreactivity”.
For “QVQLVESGGGLVQAGGSLRLSCAASGRIFLSYAIGWYRQAPGKERELVAAITSSGGSTYYADSVKGRFTISRDNAKNTVYFQMNSLKPEDTAVYYCAADYGDPRVNEYDYWGQGTQVTVSS”, the “polyreactivity (PSR sort gate)” value was “low polyreactivity”.
With “QVQLVESGGGLVQAGGSLRLSCAASGINFIYNAMGWYRQAPGKERELVATISRRGGSTYYADSVKGRFTISRDNAKNTVYLQMNSLKPEVTAVYYSARDVGAGSKISRLSSYNYWGQGTQVTVSS” the “polyreactivity (PSR sort gate)” value was “low polyreactivity”.
In the case of “QVQLVESGGGLVQAGGSLRLSCAASGFTIYYYAMGWYRQAPGKVRELVASITSGGSTYYADSVKGRFTISRDNAMNTVYLQMNSLKPEDTAVYYCAQTRFHSKEGDYWGQGTQVTVSS”, the “polyreactivity (PSR sort gate)” value is reported as “low polyreactivity”.
In the case of “QVQLVESGGGLVQAGGSLRLSCAASGRIFEHNAMGWYRQAPGKEREFVAAISSSGGSTYYADSVKGRFTISRDNAKNTVYLQMNSLKPEDTAVYYCNAGSTYYERNYWGQGTQVTVSS”, the “polyreactivity (PSR sort gate)” value is reported as “low polyreactivity”.
In the case of “QVQLVESGGGLVQAGGSLRLSCAASGNIFRPYTMGWYRQAPGKERELVARISSGGSTNYADSVKGRFTISRDNAKNTVNLQMNSLKPEDTAVYYCAKRYGTVHSRYGYWGQGTQVTVSS”, the “polyreactivity (PSR sort gate)” value is reported as “high polyreactivity”.
In the case of “QVQLVESGGGLVQAGGSLRLSCAASGRTFSTYAMGWYRQAPGKERELVATIRGSGSSTYYADSVKGRFTISRDNAKNTVYLQMNSLKPEDTAVYYCAKDNNRWRYLRYGSWGQGTQVTVSS”, the “polyreactivity (PSR sort gate)” value is reported as “high polyreactivity”.
For “QVQLVESGGGLVQAGGSLRLSCAASGFTFSSYAMGWYRQAPGKERELVAAITYRGGSTYYADSVKGRFTISRDNAKNTVYLQMNSLKPEDTAVYYCAARWGYRMYWGQGTQVTVSS”, the “polyreactivity (PSR sort gate)” value was “high polyreactivity”.
For “QVQLVESGGGLVQAGGSLRLSCAASGRIFNYYAMGWYRQAPGKERELVASITSRGGTTYYADSVKGRFTISRDKAKKTVYLQMNSLIPEDTAVYYCAAFTRPVSRRSRMNYWGQGTQVTVSS”, the “polyreactivity (PSR sort gate)” value was “high polyreactivity”.
With “QLHLVESGGGLVQAGGSLRLSCAASGRIFFYAMGWYRQAPGKERDLVASITTSGTSTYYADSVKGRFTISRDNSKNTVYLEMNSLKPEDTSVYYCNATSNSIRWYDFYYWGQGTQVTVSS” the “polyreactivity (PSR sort gate)” value was “low polyreactivity”.
For “QVQLVESGGGLVQAGGSLRLSCAASGRIFRYNAMGWYRQAPGKERELVAAISTSGTRTFYADSVKGRFTISRDNAMKTVYLQMNSVKPEDTAVYYCNKVAGPGKLGPYYYWGQGTQVTVSS”, the “polyreactivity (PSR sort gate)” value was “high polyreactivity”.
For “QVQLVESGGGLVQAGGSLRLSCAASGSTFRGYAMGWYRQEPGKERELVAAITSGGSTNYADSVKGRFTISRDNAKNTVYLQMISLKPEDTAVYYCNADYTYLYDPNDYWGQGTQVTVSS”, the “polyreactivity (PSR sort gate)” value was “low polyreactivity”.
With “QVQLVESGGGLVQAGGSLRLSCAASGNTFYQYAMGWYRQAPGKERELVAAIDWSGGSTYADSVKGRFTISRDNAKNTVYLQINSLKPEDTAVYYCNASVKPSNVWSRGYDYWGQGTQVTVSS” the “polyreactivity (PSR sort gate)” value was “low polyreactivity”.
For “QVQLQESGGGLVQAGGSLRLSCAASGNIFPTVSMGWYRQAPGKEREFVVTIDPGSNTYYADSAKGRFTISRDNAKNTVYLQMNSPKPEDTAVYYCAVVFADWATYGYWGQGTQVTVSS”, the “polyreactivity (PSR sort gate)” value was “high polyreactivity”.
For “QVQLVESGGGIVQAGGSLSLSCAASGRTFIRNAIGCYRQAPGKERELVAAINSGGITNYADSVKGRFTISRDNANNTVYLQMNSLKPEDTAVYYCNARQVLYGLYLRAYPYEYWGQGTQVTVSS”, the “polyreactivity (PSR sort gate)” value was “low polyreactivity”.
With “QVQLVESGGGLVNAGVSLLLSCAASGYIFVQYAMGWNRQAHVKERELVAAISKSGSSTYYADSVKGRFTISRDNAKNTVFLLINSLKPADSAVYYCAVVYTYVSGFTYGYWGQGTQVIVSS” the “polyreactivity (PSR sort gate)” value was “low polyreactivity”.
For “QVQLVESGGGLVQAGGSHRLSCAASGSTFYRYAMGWYRQAPGKEREFVAAISTRGGSTHYADSVKGRFTISRDNAKNTVYLQMNSLKPEDTAVYYCNARGYYSVPSNTGIRYYRFDYWGQGTQVTLSS”, the “polyreactivity (PSR sort gate)” value was “low polyreactivity”.
For “QVQLVESGGGLVQAGGSLSLSCAASGRNFVINALGWYRQAPGTERELVARIRSGGSTNYADSVKGRFTISRDNAKNTVYLQMNSLKPEDTAVYYCAAYLRTERYGYWGQGTQVTVSS”, the “polyreactivity (PSR sort gate)” value was “high polyreactivity”.
For “QVQLVESGGGLVQAGAILRVSCAASGISLQYAMGCYRQAPGKERELVASISSRGTSTYYADSVKGRFTISRDNAKNTVYLQMNSLKPEDTAVYYCAARVRWWSPGGYWGQGTQVTVSS”, the “polyreactivity (PSR sort gate)” value was “high polyreactivity”.
For “QVQLVESGGGLVQAGGSLRLSCAASGSIFLDYAMGWYRQAPGKERELVATITSGSSTYADSVKGRFTISRDNAKNTVYLQMNSLKPEDTAVYYCNVKLIVRYWNPSPYDYWGQGTQVTVSS”, the “polyreactivity (PSR sort gate)” value was “low polyreactivity”.
In the case of “QVQLVDSGGGLVQAGGSLRLSCAASGRTFKPYTMGWYRQAPGKERDLVAAISARGVSTYYADSVKGRFTISRDNAKNTGYLQMNSLKPEDTAVYYCNRVYFIGYRVFPPPMDYWGQGTQVTVSS”, the “polyreactivity (PSR sort gate)” value is reported as “high polyreactivity”.
With “QVQLVESGGGLFQAGGSLRLSCAASGFTIYHNAMRWYRQEPGKERELVAAISSSGDSTYYADSVKGRFTISRDNAKNTVYLQMNSLKPEDTAVYYCNDYFYYLSLYYYYWFNYDYWGQGTQVTVSS” the “polyreactivity (PSR sort gate)” value was “low polyreactivity”.
For “QVQLVESGGGIVQAGGSLRLSCAASGSIFYAYAMGWYRQAPGKERELVASISRGVNTNYADSVKGRFTISRDNAKNTVYLQMNSLKPEDTAVYYCNARLRYGHGYGYWGQGTQVTVSS”, the “polyreactivity (PSR sort gate)” value was “low polyreactivity”.
In the case of “QVQLVESGGRLVQAGGSLRLSCAASGRTFSTYDMGWSRQAPGKERELVAAITSTGDTPYYADSVKGRFTISRDTAKNTVYLQLNSLKPEDTAVYYCAAYASWHQWIYAFYGLDYWGQGTQVTVSS”, the “polyreactivity (PSR sort gate)” value is reported as “low polyreactivity”.
With “QVQLVESGGGLVQAGGSLRLSCPASGRTFVVYAMGWYRQAPGKEREFVAAITTRGNSTYYADSVKGRFTISRDNAKNTVYLQMNSLKPEDTAVYYCAAVLRLSTLTTDFGYWGQGTQVTVSS” the “polyreactivity (PSR sort gate)” value was “high polyreactivity”.
For “QVQLVESGGGLVQAGGSIRLSCAASGFTFDQYAMGWYRQAPGKERELVAAISSGTRTYYADSVKGRFTISRDNAKNTVYLQMNSLKPEDTAVYYCIARSVRYRDLYDYWGQGTQVTVSS”, the “polyreactivity (PSR sort gate)” value was “low polyreactivity”.
In the case of “QVQLVESGGGLVHAGGSLRLSCAASGSIFGVNMGWYRQAPGKERELVASITSGGSTNYADSVKGRFTISRDNAKNTVYLQMNSLKPEDTAVYYCAARAERVREYNYWGQGTQVTVSS”, the “polyreactivity (PSR sort gate)” value is reported as “low polyreactivity”.
With “QVQLVESGGGLVQAGGSLRLSCAASGRTFQYYAMGWYRQAPGKERELVAAISGIGTSTSYADSVKGRFTISRDNAKNTVYLQMNSLKPEDTAVYYCAARLLVPCSPWYTNYYWGQGTQVTVSS” the “polyreactivity (PSR sort gate)” value was “low polyreactivity”.
With “QVQLVESGGGLVQAGGSLRLSCAASGIISSVYAMGWYRQAPVKERELVAAISGSGGSTYYADSVKGRFTISRDNAKNTVYLQMNSLTPEDTAVYYCAKGYQYQGNSYGYWGQGTQVTVSS” the “polyreactivity (PSR sort gate)” value was “low polyreactivity”.
With “KVQLVESGSGFVQAGGSLGLSCAASGSIFRGYAMGWYRQAPGKERELVAAISWSGGTTYYADSVKGRLTISRDNEKNTFYLQMNSLKPEDTAVYYCAADTTVTITSKYNYWVQGTQVTVSS” the “polyreactivity (PSR sort gate)” value was “low polyreactivity”.
For “QVHLVESGGGLVQAGGSLRLSCAASVRTYRGNAMGWYRQAPGKEREMVAAITYRTGSTYYADSVKGRFTISRDNAKNTVYLLMNSLKPEDTAVYYCAAVSGRSYDKYYYWGQGTQVTVSS”, the “polyreactivity (PSR sort gate)” value was “high polyreactivity”.
In the case of “QVQLQESGGGLVQAGGSLRLSCAASGNISSYYRMGSYRQAPGKEREFVATIAVGGTTNYADSVKGRFTISRDNAKNTVYLQMNSLKPEDTAVCFCAANSTQYTWFDYWGQGTQVPVSS”, the “polyreactivity (PSR sort gate)” value is reported as “low polyreactivity”.
For “QVQLVESGGGLVQAGGSLRLSCAASGRIFGRYTMGWYRQAPGKERELVAGITSSGGRTYYADSVKGRFTISRDNANNTVYLQMNSLKPEDTAVYYCAAKRWSVPSLYNYWGQGTQVTVSS”, the “polyreactivity (PSR sort gate)” value was “high polyreactivity”.
For “QVQLVESGGGLVQAGGSLRLSCAASGLIFSNNAMGWYRQAPGKERELVAAITSSGSRTYYADSVKGRFTISRDNAKNTVYLEMNRLKPEDTAVYYCAAYEVPYQRRYGYWGQGTQVTVSS”, the “polyreactivity (PSR sort gate)” value was “high polyreactivity”.
With “QVQLVESGGGLVQAGGSLRLSCAASGPIFAYNAMGWYRQATGKERELVAAISYSGGSTYYPDSVKGRFTISRDNEKNSVYLQMNSLKPEDTAVYYCNAVYRYRTYRYDYWGQGTQVTVSS” the “polyreactivity (PSR sort gate)” value was “high polyreactivity”.
In the case of “QVQLVESGGGLVQAGGSLRLSCAASGFTFSYYAMGWYRQAPGKERELVATITWDGGSTYYADSVKGRFTISRDNAKNTVYLQMNSLKPEDTAVYYCAAQYYRWQTKYDYWGQGTQVTVSS”, the “polyreactivity (PSR sort gate)” value is reported as “high polyreactivity”.
For “QVQLVESGGGLVQAGGSLRISCAASGSTFYYNAMGWYRQAPGKERELVAAISYSGGRTYYADSLTGRFTISRDNAKNTVYLQMNSLKPEDTAVYYCATGQPILALRYAYGYWGQGTQVTVSS”, the “polyreactivity (PSR sort gate)” value was “low polyreactivity”.
With “QEQLQESGGGQVQAGGSLLLSCAASGNIIRYYYMGWSRQAPGKERELVAAITYGTSTNYADSVKGRFTISRDNAKNTVYLQMNSLKPEDTAVYYCAVDVNYGDPLDNWGQGTQVTVSS” the “polyreactivity (PSR sort gate)” value was “high polyreactivity”.
For “QVQLVESGGGLVQAGGSLRLSCADYGIIFSPYAMGWYRQAPGKERELVAAISYSGGSTYYADSVKGRFTISRDNAKNTVKLQMNSLKPEDTAVYYCAVVYSYYLAVLGYWDYDYWGQGTQVTVSS”, the “polyreactivity (PSR sort gate)” value was “low polyreactivity”.
For “QVQLVESGGGLVQAGGSLRLSCAASGSIIDLNAMGWYRKAHGKERELVAAISSGGITYYADSVKGRFTISRDNAKNTVYLHMNSLKPEDTAVYYCAARYNHYFSLYDYWGQGTQVTVSS”, the “polyreactivity (PSR sort gate)” value was “high polyreactivity”.
With “QVQLVESGGGLVQAGGILRLSCAASGSIVVGYAMGWYRPAPGKERELVGAITGSGTRTDYADSVKGRFTISRDNAKNPVYLHMNSLKPEDTAVYNCAAPMSYKNVKYDYWGQGTQVTVSS” the “polyreactivity (PSR sort gate)” value was “low polyreactivity”.
With “QVQRVESGGGLVQAGGSLRLSCAASGSIFRGYAMGWYRQEPEKERELVAAISRRGGSTYYADSVKGRFTISRDNAKNTVYLQMNSLKPEDTAVYYCAIDGTGAGTYDYWGQGTQVTVSS” the “polyreactivity (PSR sort gate)” value was “low polyreactivity”.
